Reference: the Human Domainome abundance scans (Beltran et al. 2025)

B1: SWI/SNF-related matrix-associated actin-dependent regulator of chromatin subfamily B member 1, residues 181 to 248; numbered along this chain, Q12824 (parent)
chain: SQPEVLVPIRLDMEIDGQKLRDAFTWNMNEKLMTPEMFSEILCDDLDLNPLTFVPAIASAIRQQIESY
B2: Connector enhancer of kinase suppressor of ras 2, residues 9 to 71; numbered along this chain, Q8WXI2 (parent)
chain: SKWSPSQVVDWMKGLDDCLQQYIKNFEREKISGDQLLRITHQELEDLGVSRIGHQELILEAVD

Variants of: B1
Assay: abundance fitness (aPCA) (normalised: wild type 0, dead -1); higher = more abundant; growth selection in yeast, the domain comes from the species named
Settings: Homo sapiens

Abundance fitness: each site, then its substitutions
T52: Q -0.215
I65: M -0.477, T -0.141, V -0.232, W -0.817
F38: L -0.284, C -0.675, K 0.132, S -0.809
D44: H 0.258, M -0.473, A 0.271, G -0.276, Q -0.028
R21: A -0.076, D 0.133, P -0.357, Y -0.227, W -0.368, E -0.026, S -0.054, L -0.204, F -0.17
L46: S -0.694, E -0.204
P55: T 0.479
Q63: K -0.067, L -0.276, F -0.232, T -0.043, S 0.011, E -0.163, M -0.257
G17: C -0.545, V -1, R -0.713
M28: T -0.277
N29: V -0.727, Q -0.476
D12: E -0.078
M33: R -0.418, E -0.794, Y -0.421, S -0.743, H -0.293
I41: Y -0.057, V 0.01, T 0.091, C -0.062, G 0.097, H 0.034
I9: Q -0.868, N -0.742, R -1.03, E -0.904, H -0.89, S -1.05, A -0.784
D45: G -0.185, H -0.143
M13: T -0.638, R -0.703, D -0.944
P8: H -0.641, G -0.875, I -0.523, F -0.506, Q -0.072, V -0.315, S -0.405, N -0.286
A60: T -0.081, E 0.085, C -0.068, N -0.28, S 0.076, F -0.725
R62: P -0.718, T -0.3, L -0.553, Q -0.192, F -0.69, I -0.824, A -0.66, N -0.256, H -0.239
K19: A -0.32
E66: A 0.096, L -0.229, W -0.313, K -0.106, I -0.276

Variants of: B2
Assay: as above
Settings: Homo sapiens

Abundance fitness of substitutions, site by site:
S1: E -0.283, C -0.07, K 0.015, L -0.154, V -0.015, G -0.134, D -0.028, P -0.653, N 0.063, I 0.038, F -0.13, W -0.22, A -0.2, T -0.198
K2: R -0.325, A -0.239, L -0.041, N -0.049, T 0.015, S -0.003, W -0.291, M -0.121, I -0.09, P -0.167, E -0.29, V -0.133, G -0.059, H 0.047, D -0.053, Y -0.012, F -0.025, C -0.084
S4: C -0.183, N 0.001, V -0.496, M -0.273, D -0.027, A -0.835, G -0.128, P -0.393, T -0.053, K -0.141, Q -0.676, I -0.567, Y -0.491, H -0.385, W -0.958, F -0.656
P5: G -0.37, K -0.514, I -0.233, M -0.377, A -0.055, C 0.026, E -0.336, D -0.275, F -0.161, Q -0.315, N 0.005
W3: F -0.563, K -0.409, R -0.498, E -0.725, L -0.236, Y -0.6, A -0.653, D -0.393, G -0.597, I -0.053, T -1.05, H -0.772, C -0.713, P -0.764, N -0.545, S -0.504
